Consider 1 substance from patent US20240124593A1.

The target in this assay is human FcRn (human) (UniProt P55899). In words: SPR Biacore 3000, antibody immobilised on CM5, hFcRn analyte, pH 7.5, 25 C, 1:1 fit.
human FcRn (human), sequence (P55899 24-297 limits assumed, chain 1 of 2): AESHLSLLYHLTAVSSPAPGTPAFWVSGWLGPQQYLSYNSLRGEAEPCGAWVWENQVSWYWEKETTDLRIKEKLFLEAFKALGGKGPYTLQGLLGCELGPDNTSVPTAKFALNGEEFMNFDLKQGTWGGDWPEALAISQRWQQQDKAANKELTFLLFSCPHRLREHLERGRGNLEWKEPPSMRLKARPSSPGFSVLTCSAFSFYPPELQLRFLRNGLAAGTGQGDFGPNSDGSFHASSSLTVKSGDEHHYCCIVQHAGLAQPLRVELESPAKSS
human FcRn (human), sequence (b2m, as listed by the source limits assumed, chain 2 of 2): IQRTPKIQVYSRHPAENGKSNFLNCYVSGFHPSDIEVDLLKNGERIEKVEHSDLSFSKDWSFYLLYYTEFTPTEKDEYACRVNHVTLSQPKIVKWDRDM

For DX-2504 (antibody), the Kd (commonly the free concentration of one partner at which half of the binding sites on the other are occupied at equilibrium, for simple one-to-one binding) turned out to be 1.9 nM.
